Molecular target: F-actin (human (endogenous in T cells)) (UniProt P60709)

mobile fraction (MF) of the EGFP-tagged ezrin by FRAP in human T cells, no pretreatment, with SDF-1	mobile fraction (MF) of the EGFP-tagged ezrin by FRAP in human T cells, no pretreatment, without SDF-1	mobile fraction (MF) of the EGFP-tagged ezrin by FRAP in human T cells, pretreated with latrunculin A (1 μM, 30 min), with SDF-1	mobile fraction (MF) of the EGFP-tagged ezrin by FRAP in human T cells, pretreated with latrunculin A (1 μM, 30 min), without SDF-1	Substance
0.18	0.25	0.81	0.72	T567D ezrin-EGFP (from UniProt P15311 1-586) (natural protein)
0.64	0.74	0.79	0.81	wild type (WT) ezrin-EGFP (from UniProt P15311 1-586) (natural protein)

Source: paper PMC3619129
